Variants at the floor of the assay were thinned out.
Key:
biotinyl-Trp-oxazolone = experiment: self-aminoacylation, catalytic enhancement (BWO) (fold over background); higher = more active; k-Seq, kA / k0A0; sequences stand for … in GGGAAUGGAUCCACAUCUACGAAUUC…UUCACUGCAGACUUGACGAAGCUG
Summary of the method: (§1)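 Mutagenized RNA pools (0.43 μM; 21-nt variable region) were treated with 2–1250 μM of each biotinyl-aminoacyl-oxazolone. Conditions were 50 μL HEPES/NaCl/KCl/MgCl2/CaCl2 buffer, 5% acetonitrile, pH 6.9–7.0, room temperature, 90 minutes. Catalytic enhancement, the median kA relative to the uncatalyzed rate, was derived from streptavidin capture, qPCR and Illumina sequencing.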

biotinyl-Leu-oxazolone = experiment: self-aminoacylation, catalytic enhancement (BLO) (fold over background); higher = more active; k-Seq, kA / k0A0; sequences stand for … in GGGAAUGGAUCCACAUCUACGAAUUC…UUCACUGCAGACUUGACGAAGCUG
Summary of the method: as §1

biotinyl-Val-oxazolone = experiment: self-aminoacylation, catalytic enhancement (BVO) (fold over background); higher = more active; k-Seq, kA / k0A0; sequences stand for … in GGGAAUGGAUCCACAUCUACGAAUUC…UUCACUGCAGACUUGACGAAGCUG
Summary of the method: as §1

biotinyl-Ile-oxazolone = experiment: self-aminoacylation, catalytic enhancement (BIO) (fold over background); higher = more active; k-Seq, kA / k0A0; sequences stand for … in GGGAAUGGAUCCACAUCUACGAAUUC…UUCACUGCAGACUUGACGAAGCUG
Summary of the method: as §1

biotinyl-Met-oxazolone = experiment: self-aminoacylation, catalytic enhancement (BMO) (fold over background); higher = more active; k-Seq, kA / k0A0; sequences stand for … in GGGAAUGGAUCCACAUCUACGAAUUC…UUCACUGCAGACUUGACGAAGCUG
Summary of the method: as §1

biotinyl-Phe-oxazolone = experiment: self-aminoacylation, catalytic enhancement (BFO) (fold over background); higher = more active; k-Seq, kA / k0A0; sequences stand for … in GGGAAUGGAUCCACAUCUACGAAUUC…UUCACUGCAGACUUGACGAAGCUG
Summary of the method: as §1

Sequence | self-aminoacylation (biotinyl-Trp-oxazolone) | self-aminoacylation (biotinyl-Leu-oxazolone) | self-aminoacylation (biotinyl-Val-oxazolone) | self-aminoacylation (biotinyl-Ile-oxazolone) | self-aminoacylation (biotinyl-Met-oxazolone) | self-aminoacylation (biotinyl-Phe-oxazolone)
AUGCACGUAGGUCAUCGGGUG [Fam2.2 aminoacylation ribozyme variant] | 5.33 | 4.72 | 3.89 | 3.52 | 4.47 | 45.4
CUACUUCAAACAAUCUGCCUG [Fam1A.1 aminoacylation ribozyme variant] | 0.605 | 0.957 | 0.751 | 0.913 | 1.04 | 1.33
AUUGCCCGGGUCAUCGAGUGA [Fam2.1 aminoacylation ribozyme variant] | 6.49 | 7.35 | 3.8 | 3.01 | 6.39 | 45.4
GUACUUCAAAAAAUCGGUCUG [Fam1A.1 aminoacylation ribozyme variant] | 7.93 | 1.62 | 1.11 | 1.57 | 1.16 | 7.83
CUACUUCAAACAAGCGGCCUG [Fam1A.1 aminoacylation ribozyme variant] | 1.68 | 2.08 | 1.83 | 2.41 | 1.32 | 0.592
AUUCACCUAGGUCACCGGGUU [Fam2.2 aminoacylation ribozyme variant] | 3.01 | 2.59 | 1.98 | 1.77 | 2.18 | 10
CCACAAUUAAAGCAAUCGGUC [Fam1B.1 aminoacylation ribozyme variant] | 0.66 | 0.881 | 1.13 | 1.13 | 0.88 | 0.833
AAAUUUGUUAAUAGUCGCAAG [Fam3.1 aminoacylation ribozyme variant] | 1.76 | 1.99 | 1.59 | 2.11 | 2.04 | 2.69
CUACUUCAAACAAACGGUCUA [Fam1A.1 aminoacylation ribozyme variant] | 0.537 | 0.696 | 0.742 | 0.751 | 0.665 | 0.773
CUAUUUCAAAAAAUCGGUCUG [Fam1A.1 aminoacylation ribozyme variant] | 1.73 | 1.18 | 0.85 | 1.13 | 1 | 2.31
UAUUUUGCUAAUAGUCGCAAG [Fam3.1 aminoacylation ribozyme variant] | 1.47 | 1.31 | 1.52 | 1.75 | 1.65 | 1.99
CCGCACUUCAACCAAUCGGUC [Fam1B.1 aminoacylation ribozyme variant] | 67.5 | 3.41 | 2.38 | 2.09 | 2.05 | 148
CUACUUCAAACAAUCGGUGAG [Fam1A.1 aminoacylation ribozyme variant] | 0.907 | 1.05 | 1.03 | 0.901 | 1.19 | 1.5
AAGAUUGCUAAUAGUCGCAAU [Fam3.1 aminoacylation ribozyme variant] | 1.14 | 1.37 | 1.41 | 1.54 | 1.85 | 2.37
CCACUUCAAACACUCGGUCUG [Fam1A.1 aminoacylation ribozyme variant] | 1.5 | 1.73 | 2.14 | 1.45 | 1.75 | 4.37
AAGUUUGCUGAUAGUCUCAAG [Fam3.1 aminoacylation ribozyme variant] | 1.28 | 0.963 | 1.13 | 1.11 | 1.01 | 1.94
CUAAUUAAAACAAUCGGUCUG [Fam1A.1 aminoacylation ribozyme variant] | 0.564 | 0.782 | 0.738 | 0.791 | 0.827 | 0.555
CUACUUCAAACAAUAGGUGUG [Fam1A.1 aminoacylation ribozyme variant] | 0.781 | 1.25 | 0.975 | 1.07 | 1.22 | 1.38
AUUCAUCUAGGUCGUCGGGUG [Fam2.2 aminoacylation ribozyme variant] | 1.68 | 2.27 | 1.86 | 1.93 | 2.1 | 4.73
AUACACGUAGGUCAUCGGGUG [Fam2.2 aminoacylation ribozyme variant] | 3.2 | 3.2 | 2.67 | 2.19 | 3.63 | 17.3
AUGUUUGCUAAUAGCCGCAAG [Fam3.1 aminoacylation ribozyme variant] | 1.36 | 1.14 | 1.04 | 1.28 | 0.997 | 2.62
AUACACCUAGGUCAUCGGGUA [Fam2.2 aminoacylation ribozyme variant] | 5.56 | 6.85 | 4.43 | 4.01 | 5.4 | 8.32
CCACACUUCGAGCAAUCAGUC [Fam1B.1 aminoacylation ribozyme variant] | 0.695 | 0.52 | 0.625 | 0.666 | 0.488 | 0.892
CCACACUUCACGCAAUCGGUU [Fam1B.1 aminoacylation ribozyme variant] | 1.45 | 1.95 | 1.92 | 1.76 | 2.01 | 0.906
AUACACCUAGGUGAUCGGGUG [Fam2.2 aminoacylation ribozyme variant] | 4.59 | 3.88 | 2.6 | 3.87 | 3.56 | 16.4
AGUCAACUAGGUCAUCGGGUG [Fam2.2 aminoacylation ribozyme variant] | 9.37 | 8.39 | 4.95 | 5.91 | 7.24 | 49.9

Source: the supplement of paper PMC9233669
